Where two headings read alike, the source gives them in different places.

Series [1] addresses T1, DEN1-NS1 (Nauru/Western Pacific/1974) (Dengue virus 1) (UniProt P17763).
T1 sequence: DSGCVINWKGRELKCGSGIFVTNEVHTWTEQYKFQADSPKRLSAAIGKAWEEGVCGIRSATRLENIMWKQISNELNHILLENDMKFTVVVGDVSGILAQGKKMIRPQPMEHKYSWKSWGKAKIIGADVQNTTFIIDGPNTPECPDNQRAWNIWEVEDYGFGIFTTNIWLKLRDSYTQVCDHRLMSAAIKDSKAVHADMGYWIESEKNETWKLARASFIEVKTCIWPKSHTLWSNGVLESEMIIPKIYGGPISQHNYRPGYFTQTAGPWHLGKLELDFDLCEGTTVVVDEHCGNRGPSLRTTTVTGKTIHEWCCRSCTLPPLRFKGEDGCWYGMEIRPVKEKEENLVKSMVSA
Description: SPR. The conditions noted are these: Ds unnatural base at both n; biotin-dT in 3' mini-hairpin CGCG(L)AGCG.

The target in series [2] is T2, DEN3-NS1 (Sri Lanka D3/H/IMTSSA-SRI/2000/1266) (Dengue virus 3) (UniProt Q6YMS4).
T2 sequence: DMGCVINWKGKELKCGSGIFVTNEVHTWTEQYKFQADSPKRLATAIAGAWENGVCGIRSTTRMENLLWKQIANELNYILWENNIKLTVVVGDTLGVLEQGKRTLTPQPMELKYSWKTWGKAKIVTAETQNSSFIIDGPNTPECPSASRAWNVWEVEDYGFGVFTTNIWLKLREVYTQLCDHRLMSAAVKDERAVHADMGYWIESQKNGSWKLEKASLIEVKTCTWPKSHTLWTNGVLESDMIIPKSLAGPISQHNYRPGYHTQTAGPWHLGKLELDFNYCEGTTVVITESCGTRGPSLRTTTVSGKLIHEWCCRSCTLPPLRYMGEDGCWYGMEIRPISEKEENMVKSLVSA
The series is described as follows: SPR. To be noted: Ds at both n; biotin-dT in 3' mini-hairpin.

For series [3], the target named is T3, DEN4-NS1 (Dominica/814669/1981) (Dengue virus 4) (UniProt P09866).
T3 sequence: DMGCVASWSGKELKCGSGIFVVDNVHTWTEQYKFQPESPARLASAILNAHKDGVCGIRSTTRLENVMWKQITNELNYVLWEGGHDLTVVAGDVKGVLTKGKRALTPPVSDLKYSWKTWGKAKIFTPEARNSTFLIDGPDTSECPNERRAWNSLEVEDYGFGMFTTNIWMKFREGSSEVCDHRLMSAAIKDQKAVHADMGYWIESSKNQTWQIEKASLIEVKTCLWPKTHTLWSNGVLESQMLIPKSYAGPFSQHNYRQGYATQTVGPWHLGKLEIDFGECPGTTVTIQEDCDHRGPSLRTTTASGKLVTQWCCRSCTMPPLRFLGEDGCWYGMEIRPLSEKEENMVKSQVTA
Description: SPR.

Series [4] addresses T4, DEN2-NS1 (Thailand/16681/84) (Dengue virus 2) (UniProt P29990).
T4 sequence: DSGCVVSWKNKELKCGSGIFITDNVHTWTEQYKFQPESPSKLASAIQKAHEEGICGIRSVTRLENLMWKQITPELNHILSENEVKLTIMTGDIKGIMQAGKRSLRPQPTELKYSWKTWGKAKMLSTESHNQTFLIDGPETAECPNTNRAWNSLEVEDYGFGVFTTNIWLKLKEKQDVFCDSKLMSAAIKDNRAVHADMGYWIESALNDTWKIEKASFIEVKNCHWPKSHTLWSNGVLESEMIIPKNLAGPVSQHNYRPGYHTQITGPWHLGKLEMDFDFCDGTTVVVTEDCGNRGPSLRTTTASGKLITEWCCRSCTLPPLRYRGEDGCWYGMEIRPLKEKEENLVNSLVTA
The series is described as follows: SPR. (Surface plasmon resonance follows binding to a sensor surface in real time, without labels.)

Series [5] deals with SIN DEN1-NS1 (Singaporean variant, 96.3% homology) (Dengue virus 1) (UniProt P33478). Description: SPR. To be noted: Ds at both x, 25 C, 150 mM NaCl, 1 mM MgCl2.
In series [6] the target is T4, DEN2-NS1 (Thailand/16681/84) (Dengue virus 2). The series is described as follows: EMSA. Background: A gel shift assay detects complexes by their altered migration in electrophoresis.
Series [7] concerns the target T3, DEN4-NS1 (Dominica/814669/1981) (Dengue virus 4). The series is described as follows: EMSA. The conditions noted are these: Ds at both x; 5' biotin-dT; 2 M urea gel.
Setting [8] is: Ds at both n, biotin-dT in 3' mini-hairpin.
The mark [9] stands for this setting: two Ds and one diol-Pa, biotin-dT in 3' mini-hairpin.

In turn, “CCCCAGACGGACTGGTGTNCTCGGNATGGCCGTCTGGGGCGCGTAGCG [D1-1-48h (AptD1)]” yielded a Kd in series [1] of 0.182 nM. For “CCGCTTGTCATCTANCCTGGCCNTGTGGTACTGTAACGGCTGACAAGCGGCGCGTAGCG [D3-2-59h (AptD3)]”, in series [2], the Kd came to 0.057 nM. In the case of “CGGCGGAGACGTAACGCNTATCAAATCNAAACAGCTTAGGGTCCGCCGCGCGTAGCG [D4-3-57h (AptD4)]”, the Kd in series [3] (setting [8]) is 0.03 nM.

For “CTCCGCTGTCAAACGGNTATCACGGCNACACACCTGCGGACAGCGGAGCGCGTAGCG [D4-1-57h]”, the Kd in series [3] (setting [8]) is 0.029 nM.

“GACGGTCTACTGGTCCGNCTGGGAACAAGNGGCGGGAGGGANGGGTGTGGGTGCGACAAGCGGAGTAGTTAGACCGTCCGCGTAGCG [D2-1d-87h]” yielded a dissociation constant (Kd) in series [4] (setting [9]) of 0.105 nM.

Turning to “GCACTCCATGATATGGTCTACTGAGCGAGACGATGCTGCTAAANTACGCCGTGGTNACGAAGACAGACAAGCGGAGTGTCGCGTAGCG [19D1F1-3]”, in series [5] (biotin-dT in 3' mini-hairpin), the Kd came to 0.027 nM. In turn, “GGCTGGTCCGACTGGGAACAAGNGGCGGGAGGGANGGGTGTGGGTGCGACAAGCGGACCAGCCCGCGTAGCG [D2-1d-72h(A) (D2-1d-72h-b)]” had a binding signal in series [6] (Ds at position 23, diol-Pa at position 35, biotin-dT in 3' mini-hairpin) above 40 % shifted. For “GGCTGGTCCGNCTGGGAACAAGNGGCGGGAGGGANGGGTGTGGGTGCGACAAGCGGACCAGCCCGCGTAGCG [AptD2e (Cont-D2, natural-base variant)]”, the binding signal in series [6] was below 10 % shifted. “GGCTGGTCCGNCTGGGAACAAGNGGCGGGAGGGANGGGTGTGGGTGCGACAAGCGGACCAGCCCGCGTAGCG [D2-1d-72h (AptD2)]” yielded a Kd in series [4] (Ds at positions 11 and 23, diol-Pa at position 35, biotin-dT in 3' mini-hairpin) of 0.104 nM.

“GGCTGGTCCGNCTGGGAACAAGNGGCGGGAGGGANGGGTGTGGGTGCGACAAGCGGACCAGCCCGCGTAGCG [D2-1d-72h-c]”: in series [6] (Ds at 11, diol-Pa at 35, biotin-dT in 3' mini-hairpin), the binding signal was below 10 % shifted.

In series [6] (Ds at 11 and 23, biotin-dT in 3' mini-hairpin), “GGCTGGTCCGNCTGGGAACAAGNGGCGGGAGGGANGGGTGTGGGTGCGACAAGCGGACCAGCCCGCGTAGCG [D2-1d-72h-d]” gave a binding signal below 10 % shifted. Regarding “GGTCCGNCTGGGAACAAGNGGCGGGAGGGANGGGTGTGGGTGCGACAAGCGGCGCGTAGCG [D2-1d-61h]”, in series [6] (setting [9]), the binding signal is above 60 % shifted. Regarding “TGATATGGTCTACTGTATAATCCGCNTTCGTCATGTGGNTTGGATCTGGGTCTGGCAGACAAGCGGAGTAGTTAGACC [D4-4-78]”, in series [7], the binding signal is above 60 % shifted. On to “TGATATGGTCTACTGTCACANATCGCCGTAAAGNCGAAGAGCTGCGGAATCTAAGGTGACAAGCGGAGTAGTTAGACC [D4-2-78]”, for which, in series [7], the binding signal was above 60 % shifted.

“TGATATGGTCTACTGTCTCAACGGTTGTCAAACGGNTATCACGGCNACACACCTGCGGACAAGCGGAGTAGTTAGACC [D4-1-78]” yielded a Kd in series [3] (Ds at both x, 5' biotin-dT) of 0.062 nM. “TGATATGGTCTACTGTGGCGCGAGGGAATCNACGCNTATCAAATANAAACAGCTAATGACAAGCGGAGTAGTTAGACC [D4-3-78]” came in with a Kd in series [3] (Ds at x (three), 5' biotin-dT) of 0.034 nM.

In the case of “TTTTCGCACTCCATGATATGGTCTACTGAGCGAGACGATGCTGCTAAANTACGCCGTGGTNACGAAGACAGACAAGCGGAGTAGTTAGACCGTGAAA [19D1F1 (isolate, AptD1b)]”, the equilibrium dissociation constant (Kd) in series [5] (5' biotin) was 0.0091 nM.

In series [6] (three Ds), “TTTTCGCACTCCATGATATGGTCTACTGGTCCGNCTGGGAACAAGNGGCGGGAGGGANGGGTGTGGGTGCGACAAGCGGAGTAGTTAGACCGTCAAA [D2-1-96(3Ds)]” yielded a binding signal below 10 % shifted.

Take “TTTTCGCACTCCATGATATGGTCTACTGGTCCGNCTGGGAACAAGNGGCGGGAGGGANGGGTGTGGGTGCGACAAGCGGAGTAGTTAGACCGTCAAA [D2-1y-96]”: in series [4] (two Ds and one diol-Px, 5' biotin), the Kd amounted to 0.041 nM.

The term Kd denotes the free concentration of one partner at which half of the binding sites on the other are occupied at equilibrium, for simple one-to-one binding. Low readings indicate higher affinity, high ones lower affinity.

For the origin of these results see US20220315926.
